Laboratory results taken from the domain aggregation screens of Martell et al. (2025).

Test: soluble fraction after stress (log2 fold change); higher = more stays soluble; pooled small domains, quantitative proteomics
Settings: stress: pH 4
Method in brief: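 Aggregation propensity is estimated from the fold change in each domain's soluble amount after acid stress. Pooled small-domain libraries were stressed at pH 4, and higher log2 values mean more stayed soluble.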

Sequence	soluble fraction (log2)
HMPLKLIDVYLGRHGKKRYDVFKETGLSQQTLASANGKPAAALTGRILQAIGRTVGETPGRVLDEMLMIEQ	0.0887
HMRQYTPEQLETAVLVLEEVRQGRRLDRALRSHPMPDGRLIAKHVLVAAYRKLVAEGTWKEDPEFLSRIRM	0.116
HMAAADLNMRAKLADLGGMSYGELSIWEKTHGMEFAAWEHEWEKLNSGTQADGLKFPKHLPEGFPT	0.116
HMADENIELRKAGLKVTLPRVKILQILEAAKEPHMSAEDVYKALMEANEEVGLATVYRVLTQFESAGL	-0.232
HMWNGIVDAGKARQHLMNLSQLGVGRRAVAAASDVAETVLMDIRSGTKTRIRARTERQILAVTPEMA	0.22
HMITFRINQQSQVGLRLDKFIVQQMPDYSRTRIQSWIKTKNILVNGEGKKSGYALEFDDLVEVTIPE	0.0398
HMDGTEVTTEPPGAQVEYEGKQFGPTPARIPGLVAGKSLHITLPGYLEVKPKIKAVPKDGEPLSFTLTAI	0.224
HMTLSAPMPGTVLKIHVKEGQRVRKGQTLVVLEAMKMEHRIQAPKAGEVTNLHFSEGDRVDMGEILVEIG	-0.905
HMENPMIEQLKQFIEAQGLTQGQLAAKLGVSTATVNQYLQGKYKGDTAALDAKAAQLMARSREK	0.175
HMNPLSELSFEERRELFLEAAVRLFEEKGYKNTSVEDIAGELGFTKKVFYYYWKNKREIVQEIHDRGMA	-0.986
HMDITKPKISFEPGEMVRVVDGPFNDFSGVVEEVNYEKSKVRVAVLIFGRSTPVELQFNQIEK	-0.523
HMIMNEYEELRDRYLIGQIWKIGDLIEAKGIEGKIIQRGTNYVTFNDNNGKVHKAWLHEIKYEQ	-0.559
HMTKQNVVPLMYRMIDTLEQFIKADVPFNIETRLARVERLRETMVSSSVTTSEKFRQVLEAYTIETD	-1.53
HMRDQQHNIYLLEKAKRLYEEFLGDNRHIIAAEMARFEAVLETQDAIIIQRAQQQFSEFLNRFDG	-1.2
HMDPASYEARLSTLREQGAQQLDPVRFQYLATLAQRLPTQTPGVALILANKLRAGLSDYEQRLSEAGS	-0.0623
HMNAVITTQKAKQIALAHAGLSEADVNYVKAELENDDGVQVYDIEFYSKNIEYDYDINAVTGEIMSFDHDI	-0.623
HMSVKIELNENEQAIFTAVQKVNEAVLPELRAQFSDMSNKAWDNSVKMLTKNNLLKVSKEGEILYIRM	0.0421
HMERVNILEKATKDIPNVEVKAFEGLSVNFARENHAQVIVRGLRAVTDFEYELQMAQTNRVLAPDVDTVF	0.317
HMKNPLIIGMTKDKIIELIGMPDNIKFLDSSLSKSEVWNYDKFGKKLYIKDEKLYQIENIEE	-0.491
HMPPSGPWEQDPPSEAQLKPFNEAMKRTADIDVDLYEKAKKALNDGTITKGNIYDWINREDSPWVLQDGS	-0.468
HMDDATTQLADRLLDLRRKAGYSQEQLADLLGVSRQAISKWEGAQGRPEVDNVVKLAQIYRVSTDFILTGS	-0.656
HMRVEEVGYGEFLQMAEERDLAEVQVTDTEIIFSDKDTPPNYYKTGRMDDPFLVDRLYSAGIRDFGE	-1.65
HMEAADAGTLAQRAAQYFNEKNYAAALDALERRAAMAPETTELRMMRGWSLLHLNRKDEARNAFATLG	-0.188
HMFGQRLRLARKRAGLSMQALAQRMSPPVTAQAISKYEADRMMPSSAVLVGLGKALGVSLDFLMGGQ	0.068
HMDGDFGMNLDWQPSEHFPTLARQAGIPADHITAEAIAEFRSYWIGQGKAMTQYQWDHKLLTNLKATKTR	0.106
HMSKASLFFLFNHKDELYIVDNNHVQDVPKPRELIRRFSTIEQIREHALHLGLPIANDTARE	-0.0573

Sequence	soluble fraction (log2)
HMKKIYEEVSEAILTMIKNGTLKPGDKLLPVHQLAEQFQVGRSAVREALSALRAMGLIEMKQGEGTYVKNF	-0.6
HMKVDRLISIVLVLLDKNRISAQELADMFEVSLRTIYRDIDAIELAGIPIRSTSGVGGGFEIMPNY	-1.19
HMADNKDMQAAFMEALNGLKEYAKVNGNIVTKEDVNSYFKDMHLDDNKYSMITGYLMANGITIKG	-0.432
HMHGETLAAKRREEIKVRIQNIYDQSEQIFGYRKITATLRSQGVVVSEKLVSQLMRELEISSVS	-0.896
HMAATSTGFPGVEVRGNSIRVFFMYKRDRHAHTLPLEPTRNNIKHADQLRSAALFALRNGTYNEADFFPHS	-0.509
HMSEKAQSENEDLIKILALLIHAAKIDENYSEKEKKLIISFAEMSSNKKLDREQINSLVDKAEQYEK	-0.507
HMGPEAFPVPYIVDIELDRAIYVIEQSGFIVGQKLEANDDNVPRGFVISQNPAAGTKLGPNSVVDLVISSG	-0.893
HMAEVHVDGVTYQFSNPEQAVKFARKIAKELGLKVEVHGETVHVK	0.0901
HMTGTVKVNSLNVYKSASLDSEVKDTLVLNTKVTIAENGQVTDGIYVWGRLQSGEGYVQMNNLTL	-1.59
HMDDVIDVYATYDKSAEGVLSNIQLFSNQKKTTPITPESGKIYIDVEGNYQFRWTGTQYATV	-0.09
HMTLYITDQMRKILDYVATNQEIDEKAVMDLLSIQRTRAYLIAKKMTDIGLLQVQGRGKTKTYRLAARS	-0.285
HMTLYQIGDKVVHPMHGAGVIDSVVQRKVSGQVQEFYLLKLSVGNMVVMVPTDNTGEIGMRP	-0.777
HMISKRFQIDEENAHKRIDIFLSHEFDSISRGIVQELIVKGEVLVNDKVTKRNYKLKTGDLVDITINL	0.247
HMQQVDWGSVFGDFGTMFKDQLQPTIDRLRRMAQSDTFRQSSLEEQQILYSLIEKLERSGTA	-2.1
HMLAKYEIIKQDIIQMIEEKKFKPGDKIYSEGELKKIYNVSSTTVVRALQDLVLSGYLIRKQGEGTYVRK	0.222
HMADVLLKHGSSGDYVWDLQYRLKTLSLFDQEMTGYFGPHTRQAVVNFQRKYGLPADGVVGPATWRALRK	-0.551
HMDIEFSDELRTFIDEWSKKEGGLVMMLHRIQNEYGFIPRTAAEKLSLISGIPLARIYGVITFYHFFKT	-1.01
HMKAQVKSVLDEIPGVGPTRRKALMKHFTSIEEIKQAEFETLLEAEGMNRAAAQSVYDFFHN	-0.491
HMDLEGLSNKELVTLRGQIQDDLNKWATEVGIIDPKNRPDDYNRALQSLEDAKRQRSAIDAKL	-0.38
HMGMNSGQADFRGISLALSVDAEAEAQRLFTALADGGQVQMPLSKTFFSPAFGMVADRFGVGWMVVTN	-0.0936
HMSPEWTPAEQDAIDKASEGEYGEALQRVLSGDYEPMDIPDALWGVQQVADKDTYSSIQKKIADIGN	0.422
HMFDKNKPVVVEGENAEVALKKVSKYFNVPTEKLDYTLLGQKSAGLLGIGSKVYQFKVWLKREIP	≥ 0.43
HMLGARIAALRRQAGMNQGELAKKLGISPSTVGMYEQGRREPSAEMLVRLAEAFSVSTDFLLT	-0.0832
HMGYDDVIVINGKNETYGFPTKVEDDPVLSLVIKGDRSIDYAEERRLFYVAMTRTKNRVFFVAP	-0.803
HMAIEGIFEKYQRRSDQLIPILQDVQKEFGYIAPESVRHISRYLRISENQIFGVSSFYAQFRFT	-0.422
HMLDPIQEGKKMLNSRLSGFGITPNTRLMNKLLAAYNISSREEFYGRIGAGIEDLSTLREVLLKGT	-0.182

Sequence	soluble fraction (log2)
HMAPTPAGNLRSLKSEIVNYTRQSSTAYVYTFKDLSSGELYTARASRYYAAAGDTAYISTAAGAITDM	-0.0513
HMNNIYFSPVVEENNKGLRLDKFLAASFPEFSRSQLQRLILEGNVSNDDVVIADNSQKVRVGDSFQVIVPE	-0.0304
HMAGPTIVTNSQGVPNYHLVKRGDTVSQIAQRYGLNYRQIGAINNLDSKYTIYSGQWLKLWQG	-0.00755
HMTPAPHESLTDREMEVLKLLAQGLSNQEIADKLFIGVKTVKYHITNIFSKLGVEDRTQAAIYAHKQGLA	-0.185
HMNVNTNTILKSLMETYPDSTVFKKAEIVSIANSLGFKKSDYSPLTSTDNRTDVRGQYDLSAVIIPMRESN	-0.11
HMQQPVAYSEFVQSVNDRQIREAQIQGERIVATDNNGNRMTVIWPENDTKLLDELVQNGVLTSIQE	-0.675
HMLELLSMEDIQRTRVGDLIATVRQVDRQHALVLDRDPETGKPAVRGIFSLSQISLRLGLNI	-0.733
HMAFYQDIAVDLRKQIIDGVYPKNSRLPNQAELAKLYTTSRVTIQKALKILQIEGLIEGRQGSGSYVKGP	0.0757
HMKEILLITGKGLHSGQDDVYKSAQLSKLRYSVPEFIKSNLEISQLILSVETPLQKDGGDGALLIK	-0.192
HMPGIDDAAVEHAERVLAQHIGPMARLLVRRTVPRAANLFDLHRRLGALIPESEPRTAFLSAVVT	0.0209
HMREIRIIAEEGHGRLDAFLAGREELGLSRSRIKGLIEEGQVTLNGAVPKAKQPVSPGDEIVVSVPD	-0.0246
HMKMQIGEIIRKYRKSNHMTQEEMAERLGVSAPAVNKWENGNSMPDIMLLAPITRLLGISLDELLSFE	-0.581
HMIEDMQQWIRQIREIVSNRLDLTRNISDDEIREVISDIVMEQSRQQYMSLNEKKTLMEGVFNSMR	-0.977
HMLPRLVLSPGTEVLATVMGKYENGMSLVKISSHLFAMDLPSRVQVGDSLRMTFLHQDARPTFALA	-0.142
HMKSLLTHAEEFVRNNNGRWMLAETSSKESYSSKQNFYLRNNYSIISEIRDFYSVGDNLLVFGKFFT	-0.242
HMFAAIFADDSGFTTRSKRFGPYVEEIAADWQAVKQLSDEDAKQALVPLVKKIELALSTLQQFVSSV	-0.405
HMVSYTLPTLHTGKNWYVDFTAYDPAEQKMKRKKYMLDGISKITERRKRAVDIIATVTARLRSGWNPWA	0.0419
HMSVLRLGNRGPDVRKLQLLLNSTLVPSPQLTVDGDFGKRTEQAVVTFQQMRGLPQDGIVGQRTWALLGQT	0.241
HMATETELNLQLMRIIDELHTDHNTWGSRKITDYLRLQGYEINRKRIQRLMDVMDIQVVYPK	-0.00483
HMDHTYKHIELTGSSEKGIEEAVQNALAKASESVQNMRWLEVTDTRGHIEDGRVAHWQVTVKVGFTL	0.22
HMDDFSETLLQYIKEKGGHISLNDKTDAGVIYETFGVSKKTFKKAVGDLYKKRLIVLEDTGIRL	0.0848
HMDKLNKELVSRMMDDAAWKELSKDFPWTEQLLEKYMNYVDWKEISRNYNVVWTKSLLEKFKHRLDWHE	-1.1
HMDAVQAGKRVLIVDDLIATGGTAKAATDLIEKAGGTVVGFSFVMRLDGLDGLDKLDGKPSSSLIAMP	-0.0677
HMGSFGAMLKRNRKLAGLTQEQLAEKLDVSTVAVQNWESGKNQIRSEKLTKLSYLFNIPLETLIHEMLIS	0.0247
